Data taken from paper PMC4460818, “Regulation of NDR1 activity by PLK1 ensures proper spindle orientation in mitosis” (Scientific Reports, 2015).

B1: GST-Mob1A (natural protein, human (cDNA from HeLa), UniProt Q9H8S9 1-216, looked up)
chain: MSFLFSSRSSKTFKPKKNIPEGSHQYELLKHAEATLGSGNLRQAVMLPEGEDLNEWIAVNTVDFFNQINMLYGTITEFCTEASCPVMSAGPRYEYHWADGTNIKKPIKCSAPKYIDYLMTWVQDQLDDETLFPSKIGVPFPKNFMSVAKTILKRLFRVYAHIYHQHFDSVMQLQEEAHLNTSFKHFIFFVQEFNLIDRRELAPLQELIEKLGSKDR
notes: Mob1A; cDNA isolated by PCR from a HeLa cDNA library, cloned into pGEX-6P-1; Vector pGEX-6P-1, BamHI and SalI; also called recombinant Mob1A; source: E. coli, purified by glutathione-agarose beads

Legend:
[1] = target: T1, MBP-NDR1 wild type (human, UniProt Q15208 1-465); test: pull-down; GST or GST-fusion protein on agarose beads incubated with purified dissolved MBP-tagged proteins in PBS, 0.1% Triton X-100, 0.5 mM DTT, 4 °C, 3-8 hours; SDS-PAGE, CBB stain; bands quantified by ImageJ for the Mob1A pull-down; conditions: both partners purified
T1 construct: NDR1 kinase, human, full length; cDNA isolated by PCR from a HeLa cDNA library; Vector pMAL-C2x; also called MBP-tagged NDR1; NDR1^WT; source: E. coli, purified by amylose beads, eluted by 10 mM maltose (told for MBP and the MBP-NDR1 mutants)

[2] = target: B1; test: as above; conditions: both partners purified

T1 sequence (Q15208 whole entry, the tested form may be a part): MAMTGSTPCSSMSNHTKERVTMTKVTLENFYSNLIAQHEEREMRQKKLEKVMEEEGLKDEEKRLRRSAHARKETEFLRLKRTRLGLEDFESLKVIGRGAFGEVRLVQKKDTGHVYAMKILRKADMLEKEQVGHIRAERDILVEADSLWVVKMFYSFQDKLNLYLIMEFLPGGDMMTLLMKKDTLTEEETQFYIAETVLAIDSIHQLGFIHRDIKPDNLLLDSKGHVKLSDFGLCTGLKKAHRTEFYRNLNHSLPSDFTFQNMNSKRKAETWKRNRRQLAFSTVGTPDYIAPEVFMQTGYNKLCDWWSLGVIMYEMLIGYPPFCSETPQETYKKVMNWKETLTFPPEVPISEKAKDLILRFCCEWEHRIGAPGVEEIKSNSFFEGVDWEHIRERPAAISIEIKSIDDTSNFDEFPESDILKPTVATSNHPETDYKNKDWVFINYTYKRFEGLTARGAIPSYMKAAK

B1: binds [1].

B2: MBP-NDR1^3A (enzyme)
chain: not shown
notes: NDR1 kinase, human, full length, Thr7, Thr183 and Thr407 mutated to alanines; Mutants were made on the siRNA-resistant (silent changes) NDR1 plasmid; source: E. coli, purified dissolved MBP-tagged protein
B2 was tested, and the “percent retained relative to NDR1^WT” value [2] was greater than 90%.

B3: MBP-NDR1^3E (enzyme)
chain: not shown
notes: NDR1 kinase, human, full length, phospho-mimicking mutant of the PLK1 sites Thr7, Thr183 and Thr407 (3E); glutamate is read from that name; Mutants were made on the siRNA-resistant NDR1 plasmid; also called phosphomimetic mutant NDR1^3E; source: E. coli, purified dissolved MBP-tagged protein
In the case of B3, the “percent bound relative to NDR1^WT” value [2] is reported as less than 30%.
